Laboratory results reported in the supplement of paper PMC11908140.

B1: library; numbered along this chain (parent)
chain: MRKPRAAVGSGHRKQAASQEGRQKHAKNNSQAKPSACDGLARQPEEVVLQASVSSYHLFRDVAEVTAFRGSLLSWYDQEKRDLPWRRRAEDEMDLDRRAYAVWVSEVMLQQTQVATVINYYTGWMQKWPTLQDLASASLEEVNQLWAGLGYYSRGRRLQEGARKVVEELGGHMPRTAETLQQLLPGVGRYTAGAIASIAFGQATGVVDGNVARVLCRVRAIGADPSSTLVSQQLWGLAQQLVDPARPGDFNQAAMELGATVCTPQRPLCSQCPVESLCRARQRVEQEQLLASGSLSGSPDVEECAPNTGQCHLCLPPSEPWDQTLGVVNFPRKASRKPPREESSATCVLEQPGALGAQILLVQRPNSGLLAGLWEFPSVTWEPSEQLQRKALLQELQRWAGPLPATHLRHLGEVVHTFSHIKLTYQVYGLALEGQTPVTTVPPGARWLTQEEFHTAAVSTAMKKVFRVYQGQQPGTCMGSKRSQVSSPCSRKKPRMGQQVLDNFFRSHISTDAHSLNSAAQ

Variants of: B1
Assay: 8OG:A repair function score (normalized; synonymous = 0, nonsense = -1) (normalized log-likelihood score); higher = more repair activity (WT-like)
Conditions: with 8OG:A DNA repair reporter (GFP) in HEK-293 MUTYH KO cells
Protocol: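 Saturation mutagenesis (NNN codon scan) of the MUTYH cDNA (521-aa nuclear isoform NM_001048174.1 / NP_001041639), stably expressed under doxycycline induction in HEK-293 MUTYH knockout cells. Cells were co-transfected with an 8OG:A-bearing GFP repair reporter plus mCherry and sorted 72 h later into GFP+ and GFP− bins, three replicates per tile. The Rosace log2 enrichment (GFP+ vs GFP−) was converted per tile to a normalized function score with synonymous variants centered at 0 and nonsense variants (codons 1-471) at -1; low-abundance variants were removed.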

Variant | 8OG:A repair function score
G150Y | -0.803
L396C | -0.199
L277E | -0.204
S487V | 0.0175
G186R | -1.16
R154N | -0.885
D91N | -0.0978
P225D | -0.53
G258S | -1.05
F453S | -0.421
E395Y | -0.0134
N119K | -0.0285
G205V | -0.876
L95Q | -0.0116
M125G | -0.932
R69P | -1.42
R156T | -0.238
W321F | -0.00541
G479E | 0.0225
R246P | -0.964
G236D | 0.156

Variant | 8OG:A repair function score
Q111L | -0.931
S55A | 0.00283
P352Y | -0.175
L58M | -0.0211
G222H | -0.56
T511V | -0.00751
Q182E | -0.0278
C311A | -0.544
Q78V | 0.00652
Q182L | -0.0117
R491K | 0.0262
L277A | -0.125
S74E | 0.00141
L373A | -0.596
A101H | -0.0529
Y120P | -0.134
N329A | -0.161
W374A | -1.1
V465F | -0.73
L408D | -0.946
E350Y | -0.185

Variant | 8OG:A repair function score
L361G | -0.729
R336Y | -0.18
Q521S | -0.00358
Q484A | 0.00718
F466K | -0.729
R482N | -0.0127
N307K | -0.0345
Y121D | -0.798
T436E | -0.16
F505Q | 0.0246
V261S | -0.503
G170E | -0.0272
Y425E | -0.544
W128V | -0.224
H407E | -0.226
R491E | 0.0286
E140P | -0.438
R163E | -0.375
A199V | -0.155
S367L | -0.139
Q363K | -0.227

Variant | 8OG:A repair function score
I421V | -0.0973
E285C | -0.00692
L361A | -0.284
L180H | -1.24
P377C | -0.633
G171L | -0.605
L501P | 0.0273
M93N | 0.00661
G222C | -0.509
L109R | -1.05
F200A | -0.576
G471W | -0.0505
Q484H | 0.0028
D249L | -0.649
N119C | -0.0452
E141W | -0.348
P383M | -0.333
S480N | 0.0064
A456K | -0.248
M255D | -1.03
A238D | -0.714
